Experimental data from patent US4397951A, “Elastase-containing composition permitting elastase to be absorbed in increased amount” (Eisai Co., Ltd., priority 1981, dated 1983).
Where two headings read alike, the source gives them in different places.

How the values were obtained:
[1] = Serum elastase level, Tmax, Cmax, AUC after intraduodenal aqueous solution (Effect Example 3); format: in vivo, beagles; conditions: intraduodenal 5 ml solution, 55.2 mg elastase (326 EL. U/mg)
Protocol: An aqueous control solution was prepared by adding 55.2 mg of elastase (326 EL. U/mg) alone to 5 ml of water.
Four beagles (weighing 10.5-14.0 kg) were divided into 2 aliquot groups, each being 2 subjects. […] The subjects were fasted overnight, and the abdomen was cut open along the median line under anesthesia in the following morning. Then, 5 ml of the respective sample and control solutions were introduced into duodendum using injection tube, followed by immediate suturing. 3 ml of the blood were respectively taken prior to the administration of the solutions, and at the elapsed times of 1, 2, 4, 6, 8, 10, 12 and 24 hours after the administration of the solutions. About 1 ml of serum was respectively separated by means of centrifuge.
Serum elastase levels were measured in accordance with "Enzyme-immunological method", as described in the effect example 1.

[2] = intraintestinal, rats, cited from earlier work
[3] = background statement; cited from earlier work
elastin = experiment: Elastase activity (decomposition of insoluble elastin); format: biochemical; conditions: pH 8.8, 37°C, 30 min, elastin substrate
Protocol: In the present invention, the compounding ratio of pure elastase to sucrose fatty acid ester is specified in terms of weight ratio for convenience' sake. […] That is, at present available pure elastase has an activity of 340 elastase activity units (abbreviated as 340 EL. U) per mg measured by the method to be described hereinafter, and therefore the composition of the present invention is also defined as an elastase-containing composition containing 0.5 to 50 mg of sucrose fatty acid ester per 340 EL. U of elastase. More specifically, the composition of the present invention is an elastase-containing composition which contains 0.5 to 50 mg of sucrose fatty acid ester per 340 EL. U (measured by the measuring method described hereinafter) of elastase.
An elastase-containing sample is accurately weighed, and dissolved in a diluted Palitzsch buffer solution to make a 250 ml elastase enzyme solution. 1 ml of the elastase enzyme solution is added to 4 ml of a substrate solution, and incubation is conducted for 30 minutes at 37°±0.1° C. with shaking at 100 strokes/min. […]
The amount of soluble elastin produced per minute as a result of decomposition of insoluble elastin under the above-described measuring conditions is determined as an amount of tyrosine (μg) by which EL. […]

[4] = statement; cited from earlier work

**Q.** Which results are given for “Control Solution: 55.2 mg of elastase (326 EL. U/mg) alone in 5 ml of water”?
**A.** AUC0-24hr [1]: 125.84 ng·h/mL; AUC0-24hr ([1]; 1440 min): 307.18 ng·h/mL

**Q.** With “^131 I-elastase: 131I-labelled elastase dissolved in a physiological saline solution” as the substance, how does the “amount absorbed (blood vessel route plus lymphatic vessel route)” value ([2]; 1 mg in physiological saline) read?
**A.** 0.15%

**Q.** What about the “amount absorbed (blood vessel route plus lymphatic vessel route)” value ([2]; 5 mg in physiological saline) of the same substance?
**A.** 0.05%

**Q.** With “elastase: decomposing enzyme for elastin, extracted from porcine pancreas; polypeptide having a molecular weight of 25,900” as the substance, how does the “effect on elasticity of blood vessel” value [3] read?
**A.** increase elasticity of blood vessel

**Q.** And the “effect on serum lipid level” value [3]?
**A.** normalize serum lipid level

**Q.** What about the elastase activity (elastin) of the same substance?
**A.** 340 EL. U per mg

**Q.** And the “stability to gastric acid” value [4]?
**A.** unstable to gastric acid
